# Source: US20200317768A1 (published 2020)
# T1: cynomolgus monkey FcγRIIb extracellular domain, His-tagged (cynomolgus monkey)
# T1 construct: also called cyno FcγRIIb; cynoFcγRIIb; not shown: C-terminal His-tag
# T1 chain: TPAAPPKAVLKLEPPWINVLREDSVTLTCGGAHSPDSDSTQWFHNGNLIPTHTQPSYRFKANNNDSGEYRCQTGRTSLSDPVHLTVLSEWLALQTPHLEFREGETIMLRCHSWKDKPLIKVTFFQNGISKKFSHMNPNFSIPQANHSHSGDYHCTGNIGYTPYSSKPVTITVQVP
# T2: cynomolgus monkey FcγRIIIaS extracellular domain, His-tagged (cynomolgus monkey, UniProt Q8SPW2 21-206 at identity 1.00))
# T2 construct: also called cyno FcγRIIIaS; cynoFcγRIIIaS; not shown: C-terminal His-tag
# T2 chain: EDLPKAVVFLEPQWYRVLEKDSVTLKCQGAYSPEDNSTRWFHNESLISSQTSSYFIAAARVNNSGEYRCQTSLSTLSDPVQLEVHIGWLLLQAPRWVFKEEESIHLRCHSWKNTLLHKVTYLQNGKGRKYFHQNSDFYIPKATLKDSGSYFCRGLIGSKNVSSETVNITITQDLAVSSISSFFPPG
# T3: cynomolgus monkey FcγRIIa3 extracellular domain, His-tagged (cynomolgus monkey)
# T3 construct: also called cyno FcγRIIa3; cynoFcgRIIa3; not shown: C-terminal His-tag
# T3 chain: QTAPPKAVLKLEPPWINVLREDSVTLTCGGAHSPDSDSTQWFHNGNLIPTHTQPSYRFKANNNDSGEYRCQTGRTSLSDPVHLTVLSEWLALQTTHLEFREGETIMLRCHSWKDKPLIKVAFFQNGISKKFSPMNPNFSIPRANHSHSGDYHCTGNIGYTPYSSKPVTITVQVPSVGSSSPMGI
# T4: cynomolgus monkey FcγRIIa1 extracellular domain, His-tagged (cynomolgus monkey)
# T4 construct: also called cyno FcγRIIa1; cynoFcgRIIa1; not shown: C-terminal His-tag
# T4 chain: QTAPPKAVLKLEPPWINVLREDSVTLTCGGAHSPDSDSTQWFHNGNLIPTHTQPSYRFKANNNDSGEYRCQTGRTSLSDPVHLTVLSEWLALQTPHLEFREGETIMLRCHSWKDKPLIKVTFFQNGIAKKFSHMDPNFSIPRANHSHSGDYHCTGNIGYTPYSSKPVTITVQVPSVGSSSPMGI
# T5: cynomolgus monkey FcγRIIa2 extracellular domain, His-tagged (cynomolgus monkey)
# T5 construct: also called cyno FcγRIIa2; cynoFcgRIIa2; not shown: C-terminal His-tag
# T5 chain: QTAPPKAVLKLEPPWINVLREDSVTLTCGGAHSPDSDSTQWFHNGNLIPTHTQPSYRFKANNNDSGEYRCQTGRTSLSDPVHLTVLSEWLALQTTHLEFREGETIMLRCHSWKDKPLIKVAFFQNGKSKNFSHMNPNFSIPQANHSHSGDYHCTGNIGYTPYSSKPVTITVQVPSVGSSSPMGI
# T6: human FcγRIIaH extracellular domain, His-tagged (human, UniProt P12318 34-217)
# T6 construct: also called human FcγRIIa (type H); FcgRIIaH; not shown: C-terminal His-tag
# T6 sequence: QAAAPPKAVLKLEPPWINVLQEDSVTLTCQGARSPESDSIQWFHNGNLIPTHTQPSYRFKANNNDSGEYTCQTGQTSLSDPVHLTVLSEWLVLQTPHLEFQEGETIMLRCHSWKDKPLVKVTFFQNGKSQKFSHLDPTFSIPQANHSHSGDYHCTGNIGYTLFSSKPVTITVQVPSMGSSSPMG
# T7: human FcγRIIaR extracellular domain, His-tagged (human, UniProt P12318 34-217)
# T7 construct: also called human FcγRIIa (type R); FcgRIIaR; not shown: C-terminal His-tag
# T7 chain: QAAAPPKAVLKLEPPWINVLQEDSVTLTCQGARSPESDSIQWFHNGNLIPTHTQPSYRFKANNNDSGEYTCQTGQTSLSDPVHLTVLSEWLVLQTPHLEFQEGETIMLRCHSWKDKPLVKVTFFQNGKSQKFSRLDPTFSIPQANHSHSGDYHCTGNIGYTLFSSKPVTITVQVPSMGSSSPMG
# T8: human FcγRIIb extracellular domain, His-tagged (human, UniProt P31994 43-217)
# T8 construct: also called FcgRIIb; not shown: C-terminal His-tag
# T8 sequence: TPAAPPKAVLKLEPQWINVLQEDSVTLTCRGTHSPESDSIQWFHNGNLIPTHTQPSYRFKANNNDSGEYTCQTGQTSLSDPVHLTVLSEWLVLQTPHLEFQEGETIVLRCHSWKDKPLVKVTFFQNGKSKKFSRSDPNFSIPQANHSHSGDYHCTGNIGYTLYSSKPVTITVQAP
# Columns and labels:
# Assay in all cases: SPR (BIACORE), antibody captured on chip, FcγR as analyte, 25 °C; KD of SG1 divided by KD of the variant
# [1] = biological target: T1, cynomolgus monkey FcγRIIb extracellular …
# Description: (§1) After the measurement, the antibody captured on the chip was washed off by allowing reaction with 10 mM glycine-HCl, pH1.5 and 25 mM NaOH so that the chip was regenerated and used repeatedly. The sensorgrams obtained as measurement results were analyzed by the 1:1 Langmuir binding model using the BIACORE® Evaluation Software to calculate the binding rate constant ka (L/mol/s) and dissociation rate constant kd (l/s), and the dissociation constant KD (mol/L) was calculated from these values. […] Regarding such interactions, KD values were calculated using the following 1:1 binding model described in BIACORE® T100 Software Handbook BR1006-48 Edition AE.
# (§2) The behavior of interacting molecules according to the 1:1 binding model on BIACORE® can be described by Equation 1: Req=C·R max/(KD+C)+RI, wherein, Req is a plot of steady-state binding levels to analyte concentration. C is concentration, RI is bulk refractive index contribution in the sample, and Rmax is analyte binding capacity of the surface. When this equation is rearranged, KD can be expressed as Equation 2: KD=C·Rmax/(Req−RI)−C. KD can be calculated by substituting the values of Rmax, RI, and C into Equation 1 or Equation 2. From the current measurement conditions, RI=0, C=2 μmol/L can be used.
# [2] = biological target: T2, cynomolgus monkey FcγRIIIaS …
# Description: as §1, §2
# [3] = biological target: T3, cynomolgus monkey FcγRIIa3 …
# Description: as §1, §2
# [4] = biological target: T4, cynomolgus monkey FcγRIIa1 …
# Description: as §1, §2
# [5] = biological target: T9, human FcγRIIIaV extracellular domain, His-tagged (human, UniProt P08637 17-208)
# T9 construct: also called human FcγRIIIa (V158 allotype); FcgRIIIaV; not shown: C-terminal His-tag
# Description: as §1, §2
# [6] = biological target: T5, cynomolgus monkey FcγRIIa2 …
# Description: as §1, §2
# [7] = biological target: T6, human FcγRIIaH extracellular domain, …
# Description: as §1, §2
# [8] = biological target: T7, human FcγRIIaR extracellular domain, …
# Description: as §1, §2
# [9] = biological target: T8, human FcγRIIb extracellular domain, …
# Description: as §1, §2
# T9 sequence (P08637 17-208 F176V): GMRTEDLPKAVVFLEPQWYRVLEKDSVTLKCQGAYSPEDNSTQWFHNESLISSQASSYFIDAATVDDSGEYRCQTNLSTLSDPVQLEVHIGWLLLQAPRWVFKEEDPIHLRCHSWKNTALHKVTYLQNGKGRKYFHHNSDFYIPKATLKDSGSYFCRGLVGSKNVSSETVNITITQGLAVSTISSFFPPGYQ
KD fold for cynoFcgRs (SG1 = 1) [1] [fold],KD fold for cynoFcgRs (SG1 = 1) [2] [fold],KD fold for cynoFcgRs (SG1 = 1) [3] [fold],KD fold for cynoFcgRs (SG1 = 1) [4] [fold],KD fold for humanFcgRs (SG1 = 1) [5] [fold],KD fold for cynoFcgRs (SG1 = 1) [6] [fold],KD fold for humanFcgRs (SG1 = 1) [7] [fold],KD fold for humanFcgRs (SG1 = 1) [8] [fold],KD fold for humanFcgRs (SG1 = 1) [9] [fold],Binder
1.3,2.25,2.5,1.5,2.79,2,1.1,1.1,1.6,"M103205H795-MY066/M103202L889-SK1 (antibody, human IgG1, kappa, Substitution introduced into M103205H795-SG1 and expressed with M103202L889-SK1 as light chain; also called K334Y variant of MS1032LO06-SG1) heavy: not shown light: DIVMTQSPATLSLSPGERATLSCTSSQSVYHANWLSWFQQKPGQPPKLLIYWASTLAYGVPSRFSGSGSGTDFTLTISSLQPEDAATYYCAGGYGGGRYAFGQGTKVEIKRTVAAPSVFIFPPSDEQLKSGTASVVCLLNNFYPREAKVQWKVDNALQSGNSQESVTEQDSKDSTYSLSSTLTLSKADYEKHKVYACEVTHQGLSSPVTKSFNRGEC"
3,3.8,3.6,2.5,3.38,3.4,2.1,3.4,2.9,"M103205H795-MY015/M103202L889-SK1 (antibody, human IgG1, kappa, Substitution introduced into M103205H795-SG1 and expressed with M103202L889-SK1 as light chain; also called P396M variant of MS1032LO06-SG1) heavy: not shown light: DIVMTQSPATLSLSPGERATLSCTSSQSVYHANWLSWFQQKPGQPPKLLIYWASTLAYGVPSRFSGSGSGTDFTLTISSLQPEDAATYYCAGGYGGGRYAFGQGTKVEIKRTVAAPSVFIFPPSDEQLKSGTASVVCLLNNFYPREAKVQWKVDNALQSGNSQESVTEQDSKDSTYSLSSTLTLSKADYEKHKVYACEVTHQGLSSPVTKSFNRGEC"
1.6,3.6,2.5,1.5,4.05,2.2,1.3,1.4,1.6,"M103205H795-MY067/M103202L889-SK1 (antibody, human IgG1, kappa, Substitution introduced into M103205H795-SG1 and expressed with M103202L889-SK1 as light chain; also called K334M variant of MS1032LO06-SG1) heavy: not shown light: DIVMTQSPATLSLSPGERATLSCTSSQSVYHANWLSWFQQKPGQPPKLLIYWASTLAYGVPSRFSGSGSGTDFTLTISSLQPEDAATYYCAGGYGGGRYAFGQGTKVEIKRTVAAPSVFIFPPSDEQLKSGTASVVCLLNNFYPREAKVQWKVDNALQSGNSQESVTEQDSKDSTYSLSSTLTLSKADYEKHKVYACEVTHQGLSSPVTKSFNRGEC"
